System: MS2 coat protein
Assay: apparent KD of MS2 coat protein; designed switch direction (-1 OFF switch, 1 ON switch): 1; higher = weaker reporter binding
How it was run: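 For each design, the apparent KD is the median over clusters of curves fitted to normalised cluster fluorescence. Clusters held RNA switches with common flanks, transcribed on Illumina chips by stalled E. coli RNA polymerase. These were titrated with SNAP-549-labelled MS2 coat protein, doubling from 0.7 or 1.5 nM to 3 µM, without input, with 200 uM small-molecule ligand, or with an oligonucleotide input.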

[1] = Eterna round: R95, input ligand: FMN 200 uM
[2] = Eterna round: R95, input ligand: microRNA oligo, concentration not stated
[3] = Eterna round: R95, input ligand: none
[4] = input ligand: microRNA oligo, concentration not stated

| Sequence | apparent KD of MS2 coat protein [1] | apparent KD of MS2 coat protein [2] | apparent KD of MS2 coat protein [3] | apparent KD of MS2 coat protein (input ligand: FMN 200 uM) | apparent KD of MS2 coat protein [4] | apparent KD of MS2 coat protein (input ligand: none) |
| --- | --- | --- | --- | --- | --- | --- |
| AACAAUCUAUCUGAGGAUAUCAUGAAAAAAACAUGAGGAUCACCCAUGUGCAGGAAAACUGCAUAUGAGAAGGCAGAUAGAUUGU [salish99_SS2_r3_002] (puzzle: Same State 2) | 28.9 nM | 621 nM | 769 nM |  |  |  |
| AACAAUCUAUCUGAGGAUAUCAUGAAAUAAACAUGAGGAUCACCCAUGUGCAUGAAAACUGCAUAUGAGAAGGCAGAUAGAUUGA [salish99_ss2_r3_038] (puzzle: Same State 2) | 54.8 nM | 415 nM | 472 nM |  |  |  |
| AACAAUCUAUCUGAGGAUAUCAUGAUAAGAACAUGAGGAUCACCCAUGUGCAGGAAAACUGCAUAUGAGAAGGCAGAUAGAUUGG [Mat - Same State 2 - Mod - D19] (puzzle: Same State 2) | 42.5 nM | 492 nM | 472 nM |  |  |  |
| AACAAUCUAUCUGAGGAUAUCAUUAAAUAAACAUGAGGAUCACCCAUGUGCAGGAAAACUGCAUAUGAGAAGGCAGAUAGAUUGA [salish99_ss2_r3_029] (puzzle: Same State 2) | 12.3 nM | 46.2 nM | 55.2 nM |  |  |  |
| AACAUACAUGAGGAUCACCCAUGUUCCGGCAGGACAGGAUAUACAUCGAAAGUGUUAUAAGUAGAAGGGUCAUAAA [JR_SS001_Sub012] (Eterna round: R96, puzzle: Same State 1) |  |  |  | 63.4 nM | 56.6 nM | 79.8 nM |
| AACAUGUGGUGUCACAUGAGGAUCACCCAUGUGGUAAAACCUGAGGAUAUAACGAACCAAAUCAAUUAGAAGGUAGGAUCACAA [AK SSNG3-V2-18] (Eterna round: R96, puzzle: Same State NG 3) |  |  |  | 59.7 nM | 46.5 nM | 64.2 nM |
| AACAUUCUAUCUGAGGAUAUCAUGAAAUAAACAUGAGGAUCACCCAUGUGCAGGAAAACUGCAUAUGAGAAGGCAGAUAGAUUGA [salish99_ss2_r3_022] (puzzle: Same State 2) | 44.9 nM | 1870 nM | 3320 nM |  |  |  |
| AAGAAAUCCGCAGGAUAUCCUAAGCCGGGCUUAGGAGAAGGGUGGCCACAUGAGGAUCACCCAUGUAAAAGCUGAAUCACAGCC [Aerququ] (Eterna round: R96, puzzle: Same State NG 1) |  |  |  | 237 nM | 388 nM | 523 nM |
| AAGAAGACGAACAAGGAUAUGUCAAAGGAAACAUGAGGAUCACCCAUGUAGAGAUUGGAAAAGAAACAGAAGGUGUACAGAGAGA [JR_SS2_Sub006] (puzzle: Same State 2) | 18.7 nM | 33.2 nM | 24.5 nM |  |  |  |
| AAGCCUAAACGGCGAAAACGACAUGAGGAUCACCCAUGUACACAGGAUAUCAGCCUGCUACAGGCUGAGAAGGGUGAACCUAAA [Maisveon] (Eterna round: R96, puzzle: Same State NG 3) |  |  |  | 797 nM | 63.8 nM | 113 nM |
| AAGCUCGUGUGAGGAUAUGCCGCCGUUUCGGCUGCAGAAGGUGCUACGUUACAUGAGGAUCACCCAUGUCUCUGUUGUUUCGUG [salish99_SSNG1_r04_953] (Eterna round: R96, puzzle: Same State NG 1) |  |  |  |  | 18.5 nM |  |
| AAGGGAUGAGCGUAGGAUAUAGGAGAAGUGACAUGAGGAUCACCCAUGUAAAAGGAGGGAUGAGACUAGAAGGACGAGGUAGGAG [JR_SS2_Sub059] (Eterna round: R96, puzzle: Same State 2) |  |  |  | 82.7 nM | 55.4 nM | 78.3 nM |
| AAGGGAUGAGCGUAGGAUAUAGGAGAAGUGACAUGAGGAUCACCCAUGUAAAAGGAGGGAUGAGACUAGAAGGACGAGGUAGGAG [JR_SS2_Sub059] (puzzle: Same State 2) | 132 nM | 84.6 nM | 91.5 nM |  |  |  |
| AAGUGAUGGGUUAGUAACUGCUAGUAAGGACAUGAGGAUCACCCAUGUGAGUAACGAGCUUUUGCUCGUCUUAUAAA [JR_SHM208A_Sub020] (puzzle: Sensor for hsa-mir-208a) | 89.7 nM | 48.9 nM | 110 nM |  |  |  |
| AAUAUACAUGAGGAUCACCCAUGUUAGUAAAUGACAGGAUAUGGAAUAAAUAAAUAAUAACCAGAAGGGUCUAAUA [JMF's solution 2] (puzzle: Same State 1) | 16 nM | 24.9 nM | 28.5 nM |  |  |  |
| AAUUAUUAACAUGAGGAUCACCCAUGUAUUAUUAUUAACAAGCUUUGCUCUACAUGGGUGCUCGUCUUAUUUAUUAA [AthenaIerokomos] (puzzle: Sensor for hsa-mir-208a version 2) | 13.7 nM | 68.6 nM | 32.5 nM |  |  |  |
| AAUUCAAACAGAGGAUAUUGUUUAUCUCUAUUGCAAGAAGGCUGAUCUUACUACUUACUUAUGAAACAUGAGGAUCACCCAUGU [JR_SSNG1_Sub019] (Eterna round: R96, puzzle: Same State NG 1) |  |  |  |  | 29.3 nM |  |
| AAUUUAAUACAUGAGGAUCACCCAUGUAAAUUAAUUAAGAUCUAGGAUAUCAGCUCGAAUAGAGCUGAGAAGGAGAUCACAUGU [SSNG3/19-B1] (Eterna round: R96, puzzle: Same State NG 3) |  |  |  |  | 13.8 nM |  |
| ACAAGCUUUUCUGCAUUGAAAGGUUGAUAACAUGAGGAUCACCCAUGUUUAUAUGAAAAUAAUGCUCCUCGUCUUAU [JR_SHM208A_Sub094] (puzzle: Sensor for hsa-mir-208a) | 55.4 nM | 11.4 nM | 46.9 nM |  |  |  |
| ACAAGCUUUUCUGUAUUGAAAGGUGGGAUACAUGAGGAUCACCCAUGUUUUUUUGUUUAUUUUUUUCCUCGUCUUAU [JR_SHM208A_Sub088] (Eterna round: R96, puzzle: Sensor for hsa-mir-208a) |  |  |  | 46 nM | 36.5 nM | 37.2 nM |
| ACAAGCUUUUCUGUAUUGAAAGGUGGGAUACAUGAGGAUCACCCAUGUUUUUUUGUUUAUUUUUUUCCUCGUCUUAU [JR_SHM208A_Sub088] (puzzle: Sensor for hsa-mir-208a) | 34.3 nM | 37.8 nM | 34.3 nM |  |  |  |
| ACAAGCUUUUUUGUAGUGAAAGGUGGGAUACAUGAGGAUCACCCAUGUAUUGUUGUUAAUAUUGGACCUCGUCUUAU [JR_SHM208A_Sub084] (puzzle: Sensor for hsa-mir-208a) | 22.1 nM | 14.2 nM | 22.5 nM |  |  |  |
| ACAGCCGGCACUGAGGAUAUUCAUAUUAAAACAUGAGGAUCACCCAUGUAGGCCAGAAGGCCUUGGGAGAAGGCAGGUCGGCUGA [Mat - Same State 2 - Mod of UCT - D64] (puzzle: Same State 2) | 18.8 nM | 229 nM | 391 nM |  |  |  |
| ACAUAGGUUUCAGGAUAUGGGUAAAUUCCCAACAUGAGGAUCACCCAUGUCCGUUGGGAUAACAUCCAGAAGGGAAGCCACAUA [MOD2 Eternabot Solution 1 (Score 87.5)] (Eterna round: R96, puzzle: Same State NG 2) |  |  |  | 215 nM | 88.1 nM | 390 nM |

From the supplement of paper PMC9170038
